Source: US11478551B2, “Long-acting adrenomedullin derivative” (University of Miyazaki, priority 2015, dated 2022)
Marks after values point to notes of the source that are not given here.

Columns and labels:
[1] = test system: Wistar rat; assay: Blood pressure-lowering effect, single intravenous dose in rat under anesthesia; format: in vivo; settings: 1 nmol/kg, single dose into the vein
Description: Each compound prepared in experiments I-1 and II-1 or full-length AM was administered in a single dose of 1 nmol/kg into the vein of each rat under anesthesia, and change in the blood pressure of the rat was observed. Each 11 to 14-week-old male Wistar rat was anesthetized by the inhalation of isoflurane. After tracheotomy, inhalational anesthesia was controlled at an isoflurane concentration of 1.5 to 2.5% and a flow rate of 0.6 to 0.8 L/min. The right jugular vein was isolated from the rat, and a catheter tube corresponding to 26 G was inserted thereto. Next, the left carotid artery was isolated from the rat thus treated, and a catheter tube corresponding to 23 G was inserted thereto. From the catheter tube of the right jugular vein, a physiological saline-heparin solution (physiological saline: 100 mL; heparin: 1000 units) was infused at 2.4 mL/hr. […] The catheter inserted in the carotid artery was connected to a pressure transducer. […] In the diagram, the ordinate depicts a difference obtained by subtracting the average blood pressure before the administration of each drug from the average blood pressure at the time of the administration of each drug.

[2] = Measurement over time of AM concentration in plasma after subcutaneous administration (RIA); format: in vivo; settings: rat
Description: 1 day, 7 days and 10 days after the start of the administration, 50 mg of pentobarbital was intraperitoneally administered, and 300 μL of blood was collected each time from the tail vain under anesthesia. Immediately, 300 μg of EDTA-2Na and […] of aprotinin were added to the obtained blood sample, and the mixture was centrifuged under conditions involving 10 minutes and 3000 rpm to obtain plasma. The AM concentration in the plasma of each sample was measured by radioimmunoassay (RIA) (Kitamura K, Ichiki Y, Tanaka M et al., Immunoreactive adrenomedullin in human plasma. FEBS Lett., vol. 341, p. 288-90, 1994).
The compound (37) prepared in experiment III-1 was subcutaneously administered in a single dose of 30 nmol/kg to each rat, and time-dependent change in the concentration in blood of the adrenomedullin derivative was observed. The compound (37) dissolved in physiological saline was subcutaneously administered to each 7- to 8-week-old male Wistar rat (approximately 250 g). 1 day, 2 days, 4 days, 7 days and 9 days after the start of the administration, 50 mg of pentobarbital was intraperitoneally administered, and 300 μL of blood was collected each time from the tail vain under anesthesia. Immediately, 300 μg of EDTA-2Na and […] of aprotinin were added to the obtained blood sample, and the mixture was centrifuged under conditions involving 10 minutes and 3000 rpm to obtain plasma. The AM concentration in the plasma of each sample was measured by RIA.

[3] = biological target: T1, AM receptor (Homo sapiens, UniProt O60895+Q16602); assay: Intracellular cAMP concentration-increasing effect in HEK293 cell line caused to express an AM receptor; format: cell-based; settings: 10^−8 mol/L, 15 minutes, 0.5 mM IBMX; percentage with respect to h.AM (1-52)-Gly;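 further: cAMP inside confluent receptor-expressing cells quantified by ELISA after 15 min exposure to each peptide at 10^−8 mol/L alongside 0.5 mM IBMX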
T1 construct: expressed in transfected cells; host or cells: HEK293 cell line
T1 sequence (Q16602 23-461): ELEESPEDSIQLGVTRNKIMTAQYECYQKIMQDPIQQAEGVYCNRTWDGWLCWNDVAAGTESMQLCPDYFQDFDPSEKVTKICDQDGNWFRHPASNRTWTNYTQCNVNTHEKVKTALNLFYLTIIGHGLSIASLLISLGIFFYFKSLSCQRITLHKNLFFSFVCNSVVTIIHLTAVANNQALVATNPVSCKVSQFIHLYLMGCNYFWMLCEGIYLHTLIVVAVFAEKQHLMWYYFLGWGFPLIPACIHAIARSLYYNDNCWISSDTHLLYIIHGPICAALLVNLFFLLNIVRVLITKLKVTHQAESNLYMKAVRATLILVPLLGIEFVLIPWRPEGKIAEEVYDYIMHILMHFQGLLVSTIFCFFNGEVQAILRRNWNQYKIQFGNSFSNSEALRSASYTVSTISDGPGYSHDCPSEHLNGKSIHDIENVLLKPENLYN
T1 sequence (O60895 43-175): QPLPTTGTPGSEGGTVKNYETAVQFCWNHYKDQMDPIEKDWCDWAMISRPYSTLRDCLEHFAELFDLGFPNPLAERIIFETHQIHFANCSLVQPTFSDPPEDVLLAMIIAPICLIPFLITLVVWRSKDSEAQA

[4] = test system: spontaneously hypertensive rat (SHR); assay: Effect of suppressing increase in blood pressure in spontaneously hypertensive rat (SHR)-(2); format: in vivo; settings: 30 nmol/kg subcutaneous single dose, 4 days and 9 days after administration
Description: The compound (37) prepared in experiment III-1 was subcutaneously administered in a single dose of 30 nmol/kg to each SHR, and the blood pressure increase-suppressing effect of the adrenomedullin derivative was observed. The compound (37) was administered in a form dissolved in physiological saline to each 8-week-old male SHR (approximately 200 g). […] of physiological saline was subcutaneously administered in a single dose to each male SHR (approximately 200 g) in the same condition as above in a control group. The blood pressure was measured over time (1 day before and 4 days and 9 days after the administration of the compound (37) or physiological saline). The values of change in the blood pressure obtained 4 days and 9 days after the administration of the compound (37) or physiological saline with respect to the average systolic blood pressure on the day before the administration are shown in FIG. 10.

[5] = 10 nmol/kg subcutaneous single dose, 7 days later

**Q.** Which results are given for `CC[C@H](C)[C@H](NC(=O)[C@H](CCC(N)=O)NC(=O)[C@H](Cc1c[nH]cn1)NC(=O)[C@H](C)NC(=O)[C@H](CC(C)C)NC(=O)[C@H](CCCCN)NC(=O)[C@H](CCC(N)=O)NC(=O)[C@@H](NC(=O)[C@@H](NC(=O)[C@@H]1CSSC[C@H](NC(=O)CNC(=O)[C@H](Cc2ccccc2)NC(=O)[C@H](CO)NC(=O)[C@H](CCCNC(=N)N)NC(=O)[C@H](CC(C)C)NC(=O)CNC(=O)[C@H](CCC(N)=O)NC(=O)[C@H](Cc2ccccc2)NC(=O)[C@H](CC(N)=O)NC(=O)[C@H](CC(N)=O)NC(=O)[C@H](CCSC)NC(=O)[C@H](CO)NC(=O)[C@H](CCC(N)=O)NC(=O)[C@H](CCCNC(=N)N)NC(=O)[C@@H](N)Cc2ccc(O)cc2)C(=O)N[C@@H](CCCNC(=N)N)C(=O)N[C@@H](Cc2ccccc2)C(=O)NCC(=O)N[C@@H]([C@@H](C)O)C(=O)N1)[C@@H](C)O)C(C)C)C(=O)N[C@@H](Cc1ccc(O)cc1)C(=O)N[C@@H](CCC(N)=O)C(=O)N[C@@H](Cc1ccccc1)C(=O)N[C@H](C(=O)N[C@@H](CC(=O)O)C(=O)N[C@@H](CCCCN)C(=O)N[C@@H](CC(=O)O)C(=O)N[C@@H](CCCCN)C(=O)N[C@@H](CC(=O)O)C(=O)N[C@@H](CC(N)=O)C(=O)N[C@H](C(=O)N[C@@H](C)C(=O)N1CCC[C@H]1C(=O)N[C@@H](CCCNC(=N)N)C(=O)N[C@@H](CO)C(=O)N[C@@H](CCCCN)C(=O)N[C@H](C(=O)N[C@@H](CO)C(=O)N1CCC[C@H]1C(=O)N[C@@H](CCC(N)=O)C(=O)NCC(=O)N[C@@H](Cc1ccc(O)cc1)C(N)=O)[C@@H](C)CC)C(C)C)[C@@H](C)O` [h.AM (1-52), reference compound]?
**A.** rapidly decreased blood pressure immediately after the administration [1]: rapidly decreased blood pressure was observed; level at time molar at 24 h [2, 5]: 0 nM; level at time molar at 24 h ([2]; 10 nmol/kg subcutaneous single dose, 10 days later): 0 nM; level at time molar at 24 h ([2]; male, Wistar, plasma, sc, 10 nmol/kg subcutaneous single dose, 1 day later): 0.0067 nM

**Q.** For “CH3O-PEG (20k)-(CH2)2—CH2-^αNH-(h.AM (1-52)) [Compound (4)]”, which “decrease in the blood pressure immediately after the administration, as compared to compound (2)” value [1] is on record?
**A.** further suppressed

**Q.** What about the “rapidly decreased blood pressure immediately after the administration” value [1] of the same compound?
**A.** not observed

**Q.** Which “rapidly decreased blood pressure immediately after the administration” value [1] does the source give for “CH3O-PEG (20k)-(CH2)5—CO-^αNH-(h.AM (1-52)) [Compound (2), reference compound]” here?
**A.** not observed

**Q.** Which level at time molar at 24 h ([2]; 10 nmol/kg subcutaneous single dose, 1 day later) does the source give for “GL-2-branched CH3O-PEG (40k)-CO-^αNH-(h.AM (1-52)) [Compound (27)]” here?
**A.** ≥ 3.6 nM

**Q.** And the level at time molar at 24 h [2, 5]?
**A.** ≥ 0.12 nM

**Q.** With “GL-2-branched CH3O-PEG (60k)-CH2-^αNH-(h.AM (1-52)-Gly) [Compound (37)]” as the compound, how does the “Intracellular cAMP concentration-increasing effect (%)” value [3] read?
**A.** 91****^) %

**Q.** And the “increase in the blood pressure compared to the control group” value [4]?
**A.** suppressed

**Q.** And the level at time molar at 24 h ([2]; 30 nmol/kg subcutaneous single dose, 1 day later)?
**A.** ≥ 34 nM

**Q.** What about the level at time molar at 24 h ([2]; 30 nmol/kg subcutaneous single dose, 7 days later) of the same compound?
**A.** ≥ 1.6 nM

**Q.** And the level at time molar at 24 h ([2]; 30 nmol/kg subcutaneous single dose, 9 days later)?
**A.** ≥ 0.11 nM
